{"source": "patent US11998613B2", "about": "“Antibody-drug conjugates containing an anti-mesothelin antibody and uses thereof” (DEVELOPMENT CENTER FOR BIOTECHNOLOGY, priority 2020, dated 2024)", "molecules": {"B1": {"name": "DCBPR2002: humanized anti-mesothelin antibody, heavy chain variable region SEQ ID NO: 11, light chain variable region SEQ ID NO: 12 (antibody, V domains shown)", "VH": "QVQLVQSGAEVKKPGASVKVSCKASGYSFTGYTMNWVRQAPGQGLEWMGLITPYNGASSYNQKFRGRVTMTRDTSISTAYMELSRLRSDDTAVYYCARGGYDGRGFDYWGQGTLVTVSS", "VL": "EIVLTQSPATLSLSPGERATLSCSASSSVSYMHWYQQKPGQAPRLLIYDTSKLASGIPARFSGSGSGTDFTLTISSLEPEDFAVYYCQQWSKHPLTFGQGTKVEIKR", "modifications": "Artificial antibody"}, "B2": {"name": "DCBPR2002-4(DBCO-vc-seco-DUBA): DCBPR2002-4Az reacted with DBCO-vc-seco DUBA; ADC, DAR ~4 (conjugate)", "VH": "B1 VH", "VL": "B1 VL"}, "B3": {"name": "DCBPR2002-2(DBCO-vc-MMAE)-2(DBCO-vc-seco-DUBA): dual-payload ADC: DCBPR2002-2(DBCO-vc-MMAE)-2Az reacted with DBCO-vc-seco DUBA; DAR ~4 (conjugate)", "VH": "B1 VH", "VL": "B1 VL"}}, "key": {"[1]": {"target": "T1, mesothelin protein (Homo sapiens, UniProt Q13421)", "T1 sequence (Q13421 with tags, fused parts or gaps)": "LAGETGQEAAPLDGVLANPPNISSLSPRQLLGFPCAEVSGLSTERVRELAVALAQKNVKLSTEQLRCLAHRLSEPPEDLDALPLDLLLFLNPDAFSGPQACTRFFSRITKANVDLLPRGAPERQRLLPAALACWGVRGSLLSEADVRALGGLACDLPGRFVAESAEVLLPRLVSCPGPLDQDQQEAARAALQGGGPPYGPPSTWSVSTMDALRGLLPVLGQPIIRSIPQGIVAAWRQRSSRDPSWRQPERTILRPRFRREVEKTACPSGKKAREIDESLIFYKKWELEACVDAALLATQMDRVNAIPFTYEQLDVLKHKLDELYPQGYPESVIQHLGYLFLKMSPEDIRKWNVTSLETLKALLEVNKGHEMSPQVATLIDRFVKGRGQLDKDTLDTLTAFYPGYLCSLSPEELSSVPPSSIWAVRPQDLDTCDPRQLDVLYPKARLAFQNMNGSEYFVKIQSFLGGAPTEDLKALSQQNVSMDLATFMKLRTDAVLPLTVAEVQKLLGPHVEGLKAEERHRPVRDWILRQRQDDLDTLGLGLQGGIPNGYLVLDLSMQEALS", "assay": "Binding kinetics of anti-mesothelin ADCs by surface plasma resonance (Biacore T100)", "conditions": "analyte MSLN; for Ka: antibody/ADC captured on CM5 chip via anti-human IgG-Fc; for dissociation rate constant (koff): antibody/ADC captured on CM5 chip", "protocol": "The kinetic constant of the anti-mesothelin ADCs interaction against mesothelin was determined by surface plasma resonance (Biacore® T100, Biacore, Inc., Piscataway, NJ). The flow cell of the CM5 wafer was fixed with approximately 10,000 reaction units (RU) of anti-human IgG-Fc (Biacore®) in 10 mM glycine pH 5.0 at 10 μL/min for 600 seconds. 10 μg/mL of anti-mesothelin antibody and anti-mesothelin ADCs diluted in TBS at 10 μl/min were captured on CM5 chips. Four concentrations (from 3.7 to 100 nM) of human mesothelin recombinant protein and zero concentration (flow buffer) in 100 μl/min binding were recorded in PBS containing 1 mM CaCl2 for 3 minutes. The dissociation of the complex was measured for 10 minutes. The water surface was regenerated by injecting 3 M MgCl2 and 3 mM EGTA at 10 μl/min for 60 seconds. The curve obtained after subtracting the reference and buffer signals was taken into the 1:1 Langmuir binding model using the Biacore® T100 evaluation software (Biacore®)."}, "[2]": {"target": "T1, mesothelin protein", "assay": "Affinity measurements and kinetic analysis using BIAcore (SPR), mesothelin immobilised", "format": "binding", "protocol": "To know the biding kinetics difference among individual antibodies, surface plasmon resonance (SPR) measurement with a BIAcore T200 (Cytiva Inc.) was used as previously described (Karlsson & Falt, (1997) J. Immunol Methods 200:121-133). Carboxymethylated dextran biosensor chips (CM5, Cytiva Inc.) were activated with N-ethyl-N′-(3-dimethylaminopropyl)-carbodiimide hydrochloride (EDC) and N-hydroxysuccinimide (NHS) according to the supplier's instructions. Mesothelin protein was diluted with 10 mM sodium acetate, pH 4.0, into 5 μg/ml before injection at a flow rate of 10 μL/minute to achieve approximately 1500 response units (RU) of coupled protein followed by the injection of 1M ethanolamine to block unreacted groups. For kinetics measurements, two-fold serial dilutions of anti-mesothelin mAb (0.3125 nM to 40 nM) were injected in HBS-EP+ Biacore running buffer provided by the manufacturer (Cytiva Inc.) at 25 degree C. at a flow rate of 30 μL/min, and binding responses on the mesothelin protein were corrected by subtraction of responses on a blank flow cell. Association rates (kon or ka) and dissociation rates (koff or kd) were calculated using a simple one-to-one Langmuir binding model with separate fittings of kon and koff was used. (Cytiva.™. Biacore Insight Evaluation Software)."}, "[3]": {"tested_on": "KLM-1 human pancreatic cancer xenograft", "assay": "KLM-1 xenograft model (Example 44)", "format": "in vivo", "conditions": "30 mg/kg IV once weekly for 3 weeks", "protocol": "Each of the formulations was administered intravenously (IV) to the mice once weekly for three weeks.\n(§1) Five mice were housed in each cage.\nWhen the average tumor volume had reached 200 mm^3, the mice were randomLy divided into 4 groups (N=6 per group). Each of the vehicle, DCBPR2002-4(DBCO-vc-MMAE) (15 and 30 mg/kg), and naked antibody (DCBPR2002, 30 mg/kg) was intravenously administered once weekly for 3 weeks.\n(§2) Differences are considered significant at *P<0.05."}, "[4]": {"tested_on": "Pancreatic cancer cell line KLM-1 (MSLN+)", "assay": "In vitro cytotoxicity, CellTiter-Glo luminescent cell viability assay, KLM-1", "format": "cell-based, human", "conditions": "KLM-1, 72 hours treatment; read-out: Relative IC50 (nM of toxic payload/ADCs)", "protocol": "(§3) Pancreatic cancer cell line KLM-1 was respectively grown in RPMI 1640 Medium (ATCC modification) medium supplemented with 10% fetal bovine serum. Ovarian carcinoma cell line OVCAR-3 was grown in RPMI 1640 Medium (ATCC modification) medium supplemented with 20% fetal bovine serum. The KLM-1 & OVCAR-3 cell lines were maintained in an atmosphere of 5% CO2 in a humidified 37° C. incubator. The day before treatment, cells were collected and seeded into 96-well plates (4,000 cells per well). On the second day, cells were treated with 3-fold serial dilution concentration of toxic payloads and ADCs. Each treatment was performed in eight triplicate data points. After the treatment of 72 hours, cell viability was assessed by CellTiter-Glo® kit (Promega) according to the manufacturer's instruction. At the end of the incubation, luminescence was measured using a SpectraMax i3x Multi Mode Detection Platform (Molecular Devices). Compound cytotoxicity was evaluated in comparison to cells treated with 0.05% PBS (ADCs) or 0.05% DMSO (toxic payload). IC50 values were calculated by fitting viability data with a four-parameter logistic equation using GraphPad prism 5.0 software."}, "[5]": {"tested_on": "OVCAR-3 human ovarian cancer xenograft", "assay": "OVCAR-3 xenograft model (Example 46)", "format": "in vivo, female NOD SCID mice", "conditions": "15 mg/kg IV once weekly for 3 weeks", "protocol": "as §1\nOVCAR-3 cells were subcutaneously (SC) implanted (1×10^7 cells in 1:1 PBS/matrigel mixture at 0.2 mL per mouse) into the right flank of female NOD SCID mice. […] Each of the vehicle, DCBPR2002-4(DBCO-vc-MMAE) (15 and 30 mg/kg), and DCBPR2002-4(DBCO-vc-seco-DUBA) (15 mg/kg) was intravenously administered once weekly for 3 weeks.\nas §2"}, "[6]": {"tested_on": "KLM-1 human pancreatic cancer xenograft", "assay": "KLM-1 xenograft model (Example 45)", "conditions": "15 mg/kg IV once weekly for 3 weeks", "protocol": "Formulations respectively comprising test article DCBPR2002-4(DBCO-vc-MMAE)(15 mg/kg), test article DCBPR2002-4(DBCO-vc-seco-DUBA)(15 mg/kg), test article DCBPR2002-4(DBCO-s-DM1) (15 mg/kg), test article DCBPR2002-2(DBCO-vc-MMAE)-2(DBCO-vc-seco-DUBA) (15 mg/kg), test article DCBPR2002-2(DBCO-vc-MMAE)-2(DBCO-s-DM1) (15 mg/kg), test article DCBPR2002-2(DBCO-vc-seco-DUBA)-2(DBCO-s-DM1) (15 mg/kg), and a corresponding vehicle were formulated by diluting the stock with a 25 mM sodium citrate buffer (pH6.5). Each of the formulations was administered intravenously (IV) once weekly for three weeks.\nThe KLM-1 cells were maintained in vitro as a monolayer culture in RPMI-1640 medium supplemented with 10% fetal bovine serum at 37° C. in an atmosphere of 5% CO2 in air. The tumor cells were routinely sub-cultured twice weekly by trypsin-EDTA treatment. The cells growing in an exponential growth phase were harvested and counted for tumor inoculation.\nMale NOD SCID mice at age of 6-7 weeks were purchased from BioLasco Taiwan Co., LTD. and quarantined for one week. Five mice were housed in each cage. All animals were hosted in the animal facility with a 12-h light/12-h dark cycle at 19-25° C. Animals had free access to rodent pellet foods and water ad libitum.\nKLM-1 cells were subcutaneously (SC) implanted (4×10^6 cells in 1:1 PBS/matrigel mixture at 0.1 mL per mouse) into the right flank of male NOD SCID mice. When the average tumor volume had reached 300 mm^3, the mice were randomly divided into 7 groups (N=6 per group). Each of the vehicle, DCBPR2002-4(DBCO-vc-MMAE), DCBPR2002-4(DBCO-vc-seco-DUBA), DCBPR2002-4(DBCO-s-DM1), DCBPR2002-2(DBCO-vc-MMAE)-2(DBCO-vc-seco-DUBA), DCBPR2002-2(DBCO-vc-MMAE)-2(DBCO-s-DM1), DCBPR2002-2(DBCO-vc-seco-DUBA)-2(DBCO-s-DM1) was intravenously administered as 15 mg/kg once weekly for 3 weeks.\nThe tumor volumes, body weights, mortality, and signs of overt toxicity were monitored and recorded three times weekly for 28 days. Tumor volumes were measured three times per week using calipers and calculated according to the formula: Tumor Volume=(w2×l)/2, where w=width and l=length in diameter (mm) of the tumor. […] One-way ANOVA followed by Dunnett's test was applied for comparison between the vehicle and test article-treated groups. Differences are considered significant at *P<0.05. Animals were weighed three times weekly until the completion of the study."}, "[7]": {"tested_on": "Ovarian carcinoma cell line OVCAR-3 (MSLN+)", "assay": "In vitro cytotoxicity, CellTiter-Glo luminescent cell viability assay, OVCAR-3", "format": "cell-based, human", "conditions": "OVCAR-3, 72 hours treatment; read-out: Relative IC50 (nM of toxic payload/ADCs)", "protocol": "as §3, with “The” for “Pancreatic cancer cell line KLM-1 was respectively grown in RPMI 1640 Medium (ATCC modification) medium supplemented with 10% fetal bovine serum. Ovarian carcinoma cell line OVCAR-3 was grown in RPMI 1640 Medium (ATCC modification) medium supplemented with 20% fetal bovine serum. The”"}}, "data": [{"molecule": "B1", "values": [{"measurement": "Rmax(RU)", "setting": "[1]", "result": 58.1, "unit": "RU"}, {"measurement": "Ka", "setting": "[1]", "result": "5.091E+6"}, {"measurement": "dissociation rate constant (koff)", "setting": "[1]", "result": "8.593E−5"}, {"measurement": "Rmax(RU)", "setting": "[2]; BIAcore T200", "result": 180.6, "unit": "RU"}, {"measurement": "ka", "setting": "[2]; BIAcore T200, 25 degree C, 1:1 Langmuir model", "result": "4.493e+06", "unit": "M⁻¹ s⁻¹"}, {"measurement": "kd", "setting": "[2]; BIAcore T200, 25 degree C, 1:1 Langmuir model, listed as HuSS1", "result": "1.124e-05", "unit": "s⁻¹"}, {"measurement": "kd", "setting": "[2]; BIAcore T200, 25 degree C, 1:1 Langmuir model, listed as HuSS1mAb", "result": "1.124e-05", "unit": "s⁻¹"}, {"measurement": "body weight changes", "setting": "[3]", "result": "No body weight loss was observed"}, {"measurement": "tumor growth / anti-tumor activity", "setting": "[3]; TGI≥58% considered significant", "result": "did not show significant anti-tumor activity"}]}, {"molecule": "B2", "values": [{"measurement": "IC50", "setting": "[4]", "result": 19.4, "unit": "nM"}, {"measurement": "body weight changes", "setting": "[5]", "result": "No body weight loss was observed"}, {"measurement": "body weight changes", "setting": "[6]", "result": "No body weight loss was observed"}, {"measurement": "ranking of efficacy potency", "setting": "[6]", "result": "DCBPR2002-4(DBCO-vc-seco-DUBA)=DCBPR2002-2(DBCO-vc-MMAE)-2(DBCO-vc-seco-DUBA)=DCBPR2002-2(DBCO-vc-seco-DUBA)-2(DBCO-s-DM1)>DCBPR2002-4(DBCO-vc-MMAE)>DCBPR2002-2(DBCO-vc-MMAE)-2(DBCO-s-DM1)>DCBPR2002-4(DBCO-s-DM1)"}, {"measurement": "IC50", "setting": "[7]", "result": 23.9, "unit": "nM"}]}, {"molecule": "B3", "values": [{"measurement": "IC50", "setting": "[4]", "result": 46, "unit": "nM"}, {"measurement": "Rmax(RU)", "setting": "[1]", "result": 50.98, "unit": "RU"}, {"measurement": "Ka", "setting": "[1]", "result": "4.752E+6"}, {"measurement": "dissociation rate constant (koff)", "setting": "[1]", "result": "1.218E−4"}, {"measurement": "body weight changes", "setting": "[6]", "result": "No body weight loss was observed"}, {"measurement": "ranking of efficacy potency", "setting": "[6]", "result": "DCBPR2002-4(DBCO-vc-seco-DUBA)=DCBPR2002-2(DBCO-vc-MMAE)-2(DBCO-vc-seco-DUBA)=DCBPR2002-2(DBCO-vc-seco-DUBA)-2(DBCO-s-DM1)>DCBPR2002-4(DBCO-vc-MMAE)>DCBPR2002-2(DBCO-vc-MMAE)-2(DBCO-s-DM1)>DCBPR2002-4(DBCO-s-DM1)"}, {"measurement": "IC50", "setting": "[7]", "result": 43.3, "unit": "nM"}]}]}
